Measurements published in patent US20250092426, “CAS ENDONUCLEASES AND RELATED METHODS” (Flagship Pioneering Innovations VII, LLC, published 2025).

Molecular target: T1, CasEnd-17 (synthetic construct)
T1 chain: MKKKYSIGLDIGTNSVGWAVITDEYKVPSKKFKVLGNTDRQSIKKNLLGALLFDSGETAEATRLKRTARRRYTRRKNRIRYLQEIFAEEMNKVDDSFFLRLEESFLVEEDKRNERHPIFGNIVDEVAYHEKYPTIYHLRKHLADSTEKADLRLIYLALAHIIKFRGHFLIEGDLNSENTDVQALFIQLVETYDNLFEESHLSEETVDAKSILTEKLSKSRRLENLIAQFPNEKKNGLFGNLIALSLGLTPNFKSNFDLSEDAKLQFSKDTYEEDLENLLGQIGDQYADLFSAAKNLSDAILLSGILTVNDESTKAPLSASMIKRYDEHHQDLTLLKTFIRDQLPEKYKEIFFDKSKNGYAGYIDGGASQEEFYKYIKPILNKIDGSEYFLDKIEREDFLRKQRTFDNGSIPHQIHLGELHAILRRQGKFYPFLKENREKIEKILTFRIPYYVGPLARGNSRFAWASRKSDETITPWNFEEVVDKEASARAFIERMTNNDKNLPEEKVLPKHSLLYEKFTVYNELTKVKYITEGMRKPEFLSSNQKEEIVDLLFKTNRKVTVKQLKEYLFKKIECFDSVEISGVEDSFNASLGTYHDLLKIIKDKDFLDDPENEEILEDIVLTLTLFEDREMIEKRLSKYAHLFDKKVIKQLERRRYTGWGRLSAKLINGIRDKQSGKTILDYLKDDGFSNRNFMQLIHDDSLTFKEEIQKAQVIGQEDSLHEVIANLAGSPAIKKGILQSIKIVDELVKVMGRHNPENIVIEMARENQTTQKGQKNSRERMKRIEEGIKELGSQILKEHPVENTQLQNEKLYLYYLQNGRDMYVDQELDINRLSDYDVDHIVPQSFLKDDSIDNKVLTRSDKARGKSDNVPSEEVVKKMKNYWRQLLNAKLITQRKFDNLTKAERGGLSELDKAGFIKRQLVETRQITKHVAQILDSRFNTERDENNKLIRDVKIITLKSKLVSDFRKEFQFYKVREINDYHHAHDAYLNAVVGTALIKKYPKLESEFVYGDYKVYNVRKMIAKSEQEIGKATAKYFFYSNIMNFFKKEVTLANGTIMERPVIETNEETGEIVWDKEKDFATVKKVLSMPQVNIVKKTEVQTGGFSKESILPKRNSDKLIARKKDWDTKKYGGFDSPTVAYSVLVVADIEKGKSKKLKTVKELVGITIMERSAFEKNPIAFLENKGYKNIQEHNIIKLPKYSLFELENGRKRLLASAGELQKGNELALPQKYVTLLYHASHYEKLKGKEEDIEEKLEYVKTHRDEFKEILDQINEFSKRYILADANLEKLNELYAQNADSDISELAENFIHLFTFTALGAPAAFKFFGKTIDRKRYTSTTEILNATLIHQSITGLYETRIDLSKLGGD
Assay: cell_activity; +++; HEK293T; PAM not stated
In short: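 Editing activity was scored as the fraction of GFP+ cells on day 4 by flow cytometry. BFP-expressing HEK293T cells (250,000) received by nucleofection 200 ng plasmid for the RT-Cas fusion protein and 200 ng template RNA plasmid designed to convert BFP to GFP.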

B1: BFP-to-GFP template RNA ; BFP reporter protospacer (ssRNA ; dsDNA)
RNA: GCCGAAGCACUGCACGCCGUGUUUUAGAGCUAGAAAUAGCAAGUUAAAAUAAGGCUAGUCCGUUAUCAACUUGAAAAAGUGGCACCGAGUCGGUGCACCCUGACGUACGGCGUGCAGUGCUU
DNA 1: GCCGAAGCACTGCACGCCGT
DNA 2: ACGGCGTGCAGTGCTTCGGC
In the case of B1, the activity is reported as ≥ 100 % of reference.
